“Also recorded” adds a separate entry of the source. Ends that are not written are not given here. * marks the point of attachment. 5FAM = O=C1OC2(c3ccc(O)cc3Oc3cc(O)ccc32)c2ccc(C(=O)*)cc21; Ahx = NCCCCCC(=O)O
What was measured:
Spir-1 = assay: GST-pulldown from mouse brain lysates; format: binding; details: 50 µg GST-fusion protein; immunoblot anti-Spir-1; N = 3
Protocol: Wild-type C57BL/6 (Jackson Laboratory, Bar Harbor, ME, USA) mice were killed by cervical dislocation. The brain was isolated immediately, washed in cold PBS and lysed in lysis buffer (25 mM Tris-HCl pH 7.4, 150 mM NaCl, 5 mM MgCl2, 10% (v/v) glycerol, 0.1% (v/v) Nonidet P-40, 0.1 M NaF, 1 mM Na3VO4, 1 mM PMSF, protease inhibitor cocktail) using a TissueRuptor (Qiagen). Following incubation on ice for 45 min, the lysate was centrifuged at 20,000 x g, 4°C until the supernatant was clear. Brain lysates were incubated with GSH-Sepharose 4B beads, loaded with 50 µg GST-fusion proteins as indicated, for 2.5 hr at 4°C on a rotating wheel. Beads were washed five times with pulldown buffer and bound proteins were eluted by 1x Laemmli buffer and denatured at 95°C for 10 min. Pulled proteins were analyzed by immunoblotting.

GST-MyoVb-GTD = target: T1, GST-MyoVb-GTD (human, UniProt Q9ULV0 1467-1848); assay: pull-down + other fluorescence titration; quantitative GST-pulldown: increasing GST-MyoVa/b-GTD on beads, 100 nM His6-mCherry-Spir-2-linker, 1x PBS with 50 mM NaCl; mCherry fluorescence left in the supernatant at 20°C; single-site fit; details: both partners purified
T1 construct: myosin Vb globular tail domain, human, aa 1467-1848; also called GST-hs-MyoVb-GTD; pGex-4T1-NTEV-hs-MyoVb-GTD; source: E. coli Rosetta or Rosetta (DE3) pLysS, purified (GSH-Sepharose 4B, Superdex 200)
T1 sequence (looked up): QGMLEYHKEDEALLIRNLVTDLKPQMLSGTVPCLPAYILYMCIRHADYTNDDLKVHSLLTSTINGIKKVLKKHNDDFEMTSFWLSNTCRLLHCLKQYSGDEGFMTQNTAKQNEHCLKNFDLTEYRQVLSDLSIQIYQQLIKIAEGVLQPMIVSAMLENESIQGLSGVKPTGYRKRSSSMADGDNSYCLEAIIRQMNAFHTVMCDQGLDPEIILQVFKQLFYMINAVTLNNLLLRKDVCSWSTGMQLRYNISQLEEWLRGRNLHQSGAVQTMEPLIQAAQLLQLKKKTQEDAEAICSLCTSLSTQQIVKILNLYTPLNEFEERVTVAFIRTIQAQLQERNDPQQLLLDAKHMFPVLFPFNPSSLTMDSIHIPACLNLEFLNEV

GST-MyoVa-GTD (mouse) = assay: as above
[1] = target: T2, MyoVc-GTD (human, aa 1350-1742) (human, UniProt Q9NQX4 1350-1742); assay: MST
T2 chain: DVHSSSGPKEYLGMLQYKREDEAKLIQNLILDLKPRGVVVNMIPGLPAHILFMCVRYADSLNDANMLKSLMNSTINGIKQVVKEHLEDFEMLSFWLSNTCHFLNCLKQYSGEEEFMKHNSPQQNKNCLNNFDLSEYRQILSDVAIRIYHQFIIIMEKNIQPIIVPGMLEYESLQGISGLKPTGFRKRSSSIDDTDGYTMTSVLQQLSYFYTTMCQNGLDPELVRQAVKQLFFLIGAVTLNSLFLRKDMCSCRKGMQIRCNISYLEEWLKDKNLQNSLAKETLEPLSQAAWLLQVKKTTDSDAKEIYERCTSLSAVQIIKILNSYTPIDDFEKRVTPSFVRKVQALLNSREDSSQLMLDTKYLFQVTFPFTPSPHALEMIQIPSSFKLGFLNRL

[2] = target: T3, MyoVc-GTD (human, aa 1350-1742) (human, UniProt Q9NQX4 1350-1742); assay: MST; 500 nM fluorescein-Spir-2 peptide, MyoVc-GTD 97 uM to 2.96 nM; 21.5°C; 50 mM Tris pH 8.0, 250 mM NaCl, 2 mM MgCl2, 2 mM TCEP, 5% glycerol; details: both partners purified
T3 construct: myosin Vc globular tail domain, human, residues 1350-1742; also called hs-MyoVc-GTD; source: E. coli BL21(DE3) or BL21-CodonPlus-RILP, purified (HisTrap, rTEV, Superdex 200); not shown: His6, N-terminal, cleaved
T3 sequence (looked up): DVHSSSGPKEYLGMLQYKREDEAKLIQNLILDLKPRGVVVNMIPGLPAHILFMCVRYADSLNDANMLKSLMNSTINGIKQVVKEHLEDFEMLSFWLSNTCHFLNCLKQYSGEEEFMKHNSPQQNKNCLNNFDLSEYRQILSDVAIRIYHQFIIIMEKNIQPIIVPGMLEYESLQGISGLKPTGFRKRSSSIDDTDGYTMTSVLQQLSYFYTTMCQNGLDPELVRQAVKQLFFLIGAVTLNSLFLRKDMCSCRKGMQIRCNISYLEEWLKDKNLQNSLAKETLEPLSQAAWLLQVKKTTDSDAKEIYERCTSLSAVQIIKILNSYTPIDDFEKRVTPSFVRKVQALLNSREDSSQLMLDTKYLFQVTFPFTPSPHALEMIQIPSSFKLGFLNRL

[3] = target: T4, MyoVb-GTD (human, aa 1456-1848) (human, UniProt Q9ULV0 1456-1848); assay: fluorescence polarisation; fluorescence anisotropy; 1 uM fluorescein-Spir-2-401-427 titrated with MyoVa-GTD or MyoVb-GTD (50 nM-5 uM); 25°C; 100 mM Tris-HCl pH 8.0, 150 mM NaCl, 2 mM MgCl2, 2 mM TCEP, 5% glycerol; details: both partners purified
T4 construct: myosin Vb globular tail domain, human, residues 1456-1848; Produced as in Pylypenko et al., 2013; also called hs-MyoVb-GTD; source: E. coli BL21(DE3) or BL21-CodonPlus-RILP, purified (HisTrap, rTEV, Superdex G200); not shown: His6, N-terminal, cleaved
T4 sequence (looked up): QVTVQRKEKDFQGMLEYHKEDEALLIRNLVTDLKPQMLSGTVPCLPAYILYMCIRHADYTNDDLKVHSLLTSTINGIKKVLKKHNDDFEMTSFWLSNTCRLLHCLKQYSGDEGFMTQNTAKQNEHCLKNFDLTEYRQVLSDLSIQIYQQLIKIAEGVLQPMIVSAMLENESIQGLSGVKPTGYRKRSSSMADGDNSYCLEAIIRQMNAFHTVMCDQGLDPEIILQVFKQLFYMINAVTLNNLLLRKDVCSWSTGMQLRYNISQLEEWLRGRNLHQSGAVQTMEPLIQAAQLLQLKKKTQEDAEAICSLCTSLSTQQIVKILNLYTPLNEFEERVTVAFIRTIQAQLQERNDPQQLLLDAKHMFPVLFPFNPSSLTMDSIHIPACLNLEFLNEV

Rab11a-Q70L = assay: GST-pulldown with purified proteins, tripartite complex; format: binding, Homo sapiens; details: N = 3
Protocol: For GST-pulldown assays, 50 µg of GST-fusion protein was coupled to GSH-Sepharose 4B beads (1:1 suspension) for 1 hr at 4°C on a rotating wheel. Beads were washed twice with pulldown buffer and subsequently incubated with 20 µg His6-mCherry-fusion peptides for 2 hr, 4°C on a rotating wheel. In order to identify the tripartite Spir-2:MyoVa:Rab11a complex, 65 µg GST-Spir-2-GTBM-SB-FYVE was coupled to beads. Subsequently, beads were incubated with 40 µg MyoVa-GTD and 35 µg Rab11a-Q70L simultaneously for 2 hr. Beads were washed four times with pulldown buffer and bound proteins were eluted by 1x Laemmli buffer and denatured at 95°C for 10 min. Pulled proteins were analyzed by immunoblotting.

With “GST-FMN2-eFSI: GST-mm-FMN2-eFSI aa 1523 - 1578, positive control ({GST}-EFSSDFKDAWKKENKLILQERVKEAEEVCRQKKGKSLYKVKPRHDSGIKAKISMKT) [reference compound]” the “pulldown of endogenous Spir-1 in words” value (Spir-1) was “able to pull endogenous Spir-1 from mouse brain lysates”.

B1: His6-mCherry-Spir-2-linker (domain or fragment, human, UniProt Q8WWL2 361-519, looked up)
chain: GEGWAARGFGSLPCILNACSGDAKSTSCINLSVTDAGGSAQRPRPRVLLKAPTLAEMEEMNTSEEEESPCGEVTLKRDRSFSEHDLAQLRSEVASGLQSATHPPGGTEPPRPRAGSAHVWRPGSRDQGTCPASVSDPSHPLLSNRGSSGDRPEASMTPD
notes: Spir-2 central linker region, human, aa 361-519; also called His-mCherry-Spir2-linker; His6-mCherry-hs-Spir2-linker; source: E. coli (Rosetta or Rosetta (DE3) pLysS; BL21(DE3)), purified (Ni-NTA, Superdex 200); not shown: His6, N-terminal, kept; mCherry, N-terminal, kept
With B1 the Kd (GST-MyoVb-GTD) was ~377 nM and the Kd (GST-MyoVa-GTD (mouse)) was 728 nM.

B2: Fluorescein-Spir-2-GTBM peptide (peptide)
peptide: {5FAM-Ahx}-QRPRPRVLLKAPTLAEMEEMNTSEEEE
notes: also called Fluorescein-Spir2 peptide; fluorescein labeled Spir-2-401-427 peptide; source: synthetic peptide, bought: GenScript
In the case of B2, the Kd [1] is reported as 2880 nM, the binding result [2] is reported as “binds” and the binding result [3] is reported as “binds”.

B3: GST-MyoVb-GTD: GST-hs-MyoVb-GTD aa 1467 - 1848 (protein)
chain: QGMLEYHKEDEALLIRNLVTDLKPQMLSGTVPCLPAYILYMCIRHADYTNDDLKVHSLLTSTINGIKKVLKKHNDDFEMTSFWLSNTCRLLHCLKQYSGDEGFMTQNTAKQNEHCLKNFDLTEYRQVLSDLSIQIYQQLIKIAEGVLQPMIVSAMLENESIQGLSGVKPTGYRKRSSSMADGDNSYCLEAIIRQMNAFHTVMCDQGLDPEIILQVFKQLFYMINAVTLNNLLLRKDVCSWSTGMQLRYNISQLEEWLRGRNLHQSGAVQTMEPLIQAAQLLQLKKKTQEDAEAICSLCTSLSTQQIVKILNLYTPLNEFEERVTVAFIRTIQAQLQERNDPQQLLLDAKHMFPVLFPFNPSSLTMDSIHIPACLNLEFLNEV
modifications: left off: GST, end not stated, kept
For B3, the “pulldown of endogenous Spir-1 in words” value (Spir-1) was “able to pull endogenous Spir-1 from mouse brain lysates”.

B4: GST-Spir-2-GTBM-SB-FYVE: GST-hs-Spir2-GTBM-SB-FYVE aa 361 - 714 (protein)
chain: GEGWAARGFGSLPCILNACSGDAKSTSCINLSVTDAGGSAQRPRPRVLLKAPTLAEMEEMNTSEEEESPCGEVTLKRDRSFSEHDLAQLRSEVASGLQSATHPPGGTEPPRPRAGSAHVWRPGSRDQGTCPASVSDPSHPLLSNRGSSGDRPEASMTPDAKHLWLEFSHPVESLALTVEEVMDVRRVLVKAEMEKFLQNKELFSSLKKGKICCCCRAKFPLFSWPPSCLFCKRAVCTSCSIKMKMPSKKFGHIPVYTLGFESPQRVSAAKTAPIQRRDIFQSLQGPQWQSVEEAFPHIYSHGCVLKDVCSECTSFVADVVRSSRKSVDVLNTTPRRSRQTQSLYIPNTRTLDFK
modifications: left off: GST, end not stated, kept
With B4 the “pulldown of Rab11a-Q70L in words” value (Rab11a-Q70L; in the presence of MyoVa-GTD) was “allows GST-Spir-2-GTBM-SB-FYVE to pull Rab11a-Q70L” and the “pulldown of Rab11a-Q70L in words” value (Rab11a-Q70L; without MyoVa-GTD) was “does not interact with Rab11a-Q70L; also recorded: does not pull down Rab11a-Q70L”.

From PMC5021521, “Coordinated recruitment of Spir actin nucleators and myosin V motors to Rab11 vesicle membranes” (eLife, 2016)
